Assay results published in PMC4961411.
Values joined by “and” are separate entries in the source; they are usually repeats but may differ in a detail not shown here. Equal entries are not always repeated.

Assays:
[1] = target: 6xHis-YlfA 128–425 (Legionella pneumophila); experiment: SDS-PAGE and immunoblot of gel filtration peak fractions, not boiled
[2] = target: 6xHis-YlfA 128–425 (Legionella pneumophila); experiment: SDS-PAGE and immunoblot of gel filtration peak fractions, boiled
[3] = target: 6xHis-YlfB 131–405 (Legionella pneumophila); experiment: SDS-PAGE and immunoblot of gel filtration peak fractions, not boiled
[4] = target: 6xHis-YlfB 131–405 (Legionella pneumophila); experiment: SDS-PAGE and immunoblot of gel filtration peak fractions, boiled

| Substance | stoichiometry N [1] | stoichiometry N [2] | stoichiometry N [3] | stoichiometry N [4] |
| --- | --- | --- | --- | --- |
| 6xHis-YlfA 128–425 (domain or fragment) | 2 and 3 | 2 |  |  |
| 6xHis-YlfB 131–405 (domain or fragment) |  |  | 2 and 3 | 2 |
